Data reported in patent US20030135880A1, “Compositions and methods for halogenation reactions” (priority 2002, published 2003).
Like-named read-outs stand apart in the source and are kept apart here.

T1: PrnC (Pseudomonas fluorescens, UniProt P95482)
T1 construct: made in house; host or cells: P. fluorescens (pPEH/prnC/134Δprn), plasmid pPEH-PrnC with tac promoter
T1 sequence (P95482 whole entry, looked up): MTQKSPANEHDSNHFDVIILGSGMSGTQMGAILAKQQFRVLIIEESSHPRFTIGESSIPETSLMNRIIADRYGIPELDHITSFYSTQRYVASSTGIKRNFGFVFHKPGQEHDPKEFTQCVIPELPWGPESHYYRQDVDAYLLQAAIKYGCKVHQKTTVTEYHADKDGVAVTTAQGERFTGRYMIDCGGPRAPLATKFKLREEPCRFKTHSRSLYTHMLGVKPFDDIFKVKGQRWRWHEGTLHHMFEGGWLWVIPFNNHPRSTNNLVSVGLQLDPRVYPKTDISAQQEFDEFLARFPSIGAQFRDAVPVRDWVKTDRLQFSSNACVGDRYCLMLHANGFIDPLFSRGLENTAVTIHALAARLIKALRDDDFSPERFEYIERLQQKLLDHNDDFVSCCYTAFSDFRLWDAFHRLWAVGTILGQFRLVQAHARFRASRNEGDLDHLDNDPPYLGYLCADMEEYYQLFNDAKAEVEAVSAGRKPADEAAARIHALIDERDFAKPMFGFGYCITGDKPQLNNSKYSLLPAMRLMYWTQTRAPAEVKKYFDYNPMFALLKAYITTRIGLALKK


How the values were obtained:
[1] = molecular target: T2, PrnA (Pseudomonas fluorescens, UniProt P95480); assay: Activation of PrnA by electron transferases, 2 h assay (Example 2); type: biochemical; parameters: made in house; host or cells: Pseudomonas fluorescens BL915deltaORF1-4 with plasmid pPEH14 (prnA); conditions: 20 microliter PrnA, 50 microliter NADH, 50 microliter electron transferase, room temperature
T2 sequence (P95480 whole entry): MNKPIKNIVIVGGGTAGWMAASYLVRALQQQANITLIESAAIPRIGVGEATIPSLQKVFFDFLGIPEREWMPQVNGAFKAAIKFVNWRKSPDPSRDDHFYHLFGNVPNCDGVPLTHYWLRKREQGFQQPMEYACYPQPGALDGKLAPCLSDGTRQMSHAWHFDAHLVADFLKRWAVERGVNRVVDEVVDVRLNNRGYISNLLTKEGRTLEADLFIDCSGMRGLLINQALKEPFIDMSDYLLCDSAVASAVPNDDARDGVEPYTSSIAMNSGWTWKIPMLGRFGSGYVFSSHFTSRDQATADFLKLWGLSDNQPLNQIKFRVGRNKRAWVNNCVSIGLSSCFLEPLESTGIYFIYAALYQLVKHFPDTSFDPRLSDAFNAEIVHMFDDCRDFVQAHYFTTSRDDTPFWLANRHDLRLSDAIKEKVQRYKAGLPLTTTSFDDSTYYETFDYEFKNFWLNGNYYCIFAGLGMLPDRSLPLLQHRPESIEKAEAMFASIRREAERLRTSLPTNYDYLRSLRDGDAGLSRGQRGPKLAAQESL
Method: The following components are used in examples 1-4 below: PrnA (described for Example 1 above) at 0.36 mg/ml, Assay Mixture containing HEPES (100 mM), glucose-6-phosphate, disodium salt (50 mM), D-Trp (5 mM), NaCl (5 mM). Aspergillus niger catalase (39 U/ml), bovine erythrocyte superoxide dismutase (15 U/ml), Leuconostoc mesenteroides glucose-6-phosphate dehydrogenase (10 U/ml). NADH-(3 mg/ml) NADPH (3 mg/ml).
Each assay contains the assay mixture, either NADH (for samples containing Fre and the NAD(P)H:FMN reductase) or NADPH (for samples containing FNR or FNR and Fd), PrnA and the indicated electron transferase. Negative control samples are incubated in parallel; these substituted buffer for PrnA. Quantification standards are prepared by diluting 0,1, 2 or 5 microliter of 7-Cl-Trp standard (1 mM) in 100 microliter Assay Mixture, 50 microliter NADH, 20 microliter PrnA and 50 microliter buffer; the tubes were heated to 100 C. prior to addition of PrnA, then heated an additional 2 min. Further processing is in parallel with the enzymatic reactions. All samples are mixed for 2 h at room temperature. Reactions are stopped and samples processed as described above in Example 1, including using the HPLC Analytical method PrnA1 as described in Example 1.

[2] = molecular target: T1, PrnC; assay: In vitro halogenation with PrnC: chlorination of MDA to APRN (Example 3); type: biochemical, P. fluorescens; conditions: Extract #2 (PrnC depleted of P2) plus 20 microliter electron transferase, NADH, overnight
Method: Fre, ferrodoxin NADP reductase, ferrodoxin and NADPH FMN-reductase are tested for the ability to activate P. fluorescens PrnC that was depleted of endogenous electron transferase (P2) as described below. PrnC catalyzes chlorination of monodechloroaminopyrrolnitrin (MDA) to yield aminopyrrolnitrin (APRN).
The following materials are prepared for use in assays described below. Buffer 100 mM Tris/Cl, 1 mM EDTA. pH 7.5. Monodechloroaminopyrrolnitrin (MDA) 74.2 mM is prepared by culture of Pseudomonas fluorescens expressing PrnA and PrnB as described in (Kirner et al,1998) which is herein incorporated by reference in its entirety. The assay mix comprises FAD (5 μM) and MDA (742 μM) in buffer. NADH is dissolved in buffer at a concentration of 6 mg/ml. or NADPH is dissolved in buffer at a concentration of 6 mg/ml. Extract #1 is a crude extract in buffer containing PrnC and the endogenous electron transferase P2 described above in example 1. […]
The assays described below are run as follows; Extract #2 is mixed with the indicated electron transferase, assay mix and either NADH or NADPH as indicated. The native activity of PrnC prior to removal of the P2 activity is determined by a parallel sample in which extract #1 is mixed with assay mix and NADH. […] Samples are analyzed by PrnC_Iso method described below. The 220 nm absorbance chromatogram is analyzed and integrated. PrnC activity is expressed as 100 times the ratio of the APRN peak area to the sum of the peak areas of APRN and MDA. Assuming equal extinction coefficients at 220 nm the calculated ratio is equivalent to the net % conversion of MDA to APRN by halogenation.
HPLC Analytical method PrnC_Iso The HPLC instrument used is a Waters Alliance HPLC system with photodiode array detector and is equipped with a 4.6×50 mm column packed with C18-Silica, particle size 3 micrometer. […] Absorbance data are collected from 210 to 400 nm with a resolution of 2.4 nm and a sampling rate of 5/s. […]

[3] = molecular target: T2, PrnA; type: biochemical; parameters: made in house; host or cells: Pseudomonas fluorescens BL915deltaORF1-4 with plasmid pPEH14 (prnA); conditions: 20 microliter PrnA, 20 microliter electron transferase, 20.5 hours, room temperature, triplicate
Method: Protein concentration or the preparation is 0.36 mg/ml.
Either a NADH dependent mixture or a NADPH mixture is used as indicated below. An NADH-dependent assay mixture is prepared by adding 12 mg of NADH to 4.5 ml of above described assay mixture. A NADPH-dependent assay mixture is prepared by adding 3 mg NADPH to 1 ml of the above described assay mixture.
The reactions 1-7, described below, are set up in polypropylene tubes in triplicate. After mixing PrnA, the indicated assay mixture and electron transferase, samples are vortexed, then mixed by inversion at room temperature. […] The HPLC analysis is by Method Set PrnA1 (described below), the injection volume is 50 microliter, and data are collected for the first 6 minutes.
Standards are prepared by mixing 5 or 10 microliter 7-Cl-Trp (1 mM) with sufficient 50 mM HEPES, pH 7.5 to bring the final volume to 200 microliter. D-Trp is eluted at ˜2 min and 7-Cl-trp is eluted at 4.3 min, as indicated by the elution of the authentic D-Trp and 7-Cl-Trp. The quantity of 7-Cl-trp is determined by comparison to a standard curve. Reported activities are the net increase in 7-Cl-Trp after addition of the electron transferase.
A Waters Alliance HPLC system with photodiode array detector is used. The Waters Alliance HPLC is equipped with a 4.6×50 mm column packed with C18-Silica, particle size 3 micrometer. A gradient elution method designated here as PrnA1 is used. Flow rates are 1 ml/min throughout and absorbance data are collected from 210 to 400 nm with a resolution of 1.2 nm and a sampling rate of 1/s. The system as pre-equilibrated with an 85:15 mixture of water:methanol. After injection of the sample the column is developed with a 6 min gradient from the starting conditions to a 40:60 water:methanol mixture. Then from 6.0 to 7.0 min the concentration of methanol is increased to 100% in a linear gradient. The column is washed for 1 min with 100% methanol, then re-equilibrated. D-Trp eluted at ˜2 min and 7-Cl-trp eluted at 4.3 min, as indicated by the elution of authentic D-Trp and 7-Cl-Trp.

Molecule | Net 7-Cl-Trp produced [1] [nmol] | PrnC activity, conversion of MDA to APRN [2] [%] | net product formation 7-Cl-Trp ([3]; NADH mixture) [nmol] | net product formation 7-Cl-Trp ([3]; NADPH mixture) [nmol]
FNR: Spinach ferredoxin NADP reductase (protein, UniProt P00455 56-369, looked up) Ferredoxin--NADP reductase, …: QIASDVEAPPPAPAKVEKHSKKMEEGITVNKFKPKTPYVGRCLLNTKITGDDAPGETWHMVFSHEGEIPYREGQSVGVIPDGEDKNGKPHKLRLYSIASSALGDFGDAKSVSLCVKRLIYTNDAGETIKGVCSNFLCDLKPGAEVKLTGPVGKEMLMPKDPNATIIMLGTGTGIAPFRSFLWKMFFEKHDDYKFNGLAWLFLGVPTSSSLLYKEEFEKMKEKAPDNFRLDFAVSREQTNEKGEKMYIQTRMAQYAVELWEMLKKDNTYFYMCGLKGMEKGIDDIMVSLAAAEGIDWIEYKRQLKKAEQWNVEVY | 4.22 | 1.8 |  | 
Fre: E. coli flavin reductase (SEQ ID NO: 19), purified electron transferase (protein, listed as Escherichia coli) MTTLSCKVTSVEAITDTVYRVRIVPDAAFSFRAGQYLMVVMDERDKRPFSMASTPDEKGFIELHIGASEINLYAKAVMDRILKDHQIVVDIPHGEAWLRDDEERPMILIAGGTGFSYARSILLTALARNPNRDITIYWGGREEQHLYDLCELEALSLKHPGLQVVPVVEQPEAGWRGRTGTVLTAVLQDHGTLAEHDIYIAGRFEMAKIARDLFCSERNAREDRLFGDAFAFI | 8.44 | 51.8 | 21.46 ± 1.02 | 
NAD(P)H:FMN reductase: Photobacterium fischeri NAD(P)H:FMN reductase purchased from Roche (protein, listed as Vibrio fischeri) MPINCKVKSIEPLACNTFRILLHPEQPVAFKAGQYLTVVMGEKDKRPFSIASSPCRHEGEIELHIGAAEHNAYAGEVVESMKSALETGGDILIDAPHGEAWIREDSDRSMLLIAGGTGFSYVRSILDHCISQQIQKPIYLYWGGRDECQLYAKAELESIAQAHSHITFVPVVEKSEGWTGKTGNVLEAVKADFNSLADMDIYIAGRFEMAGAAREQFTTEKQAKKEQLFGDAFAFI | 0.11 | 4.0 |  | 
NADPH-cyt-P450 reductase: Rabbit liver NADPH-cyt-P450 reductase purchased from Sigma Chemical Co. (protein, listed as Oryctolagus cuniculus) LINMADSHGDTGATMPEAAAQEASVFSMTDVVLFSLIVGLITYWFLFRKKKEEVPEFTKIQAPTSSSVKESSFVEKMKKTGRNIVVFYGSQTGTAEEFANRLSKDAHRYGMRGMAADPEEYDLADLSSLPEINNALAVFCMATYGEGDPTDNAQDFYDWLQETDVDLSGVKYAVFGLGNKTYEHFNAMGKYVDQRLEQLGAQRIFELGMGDDDANLEEDFITWREQFWPAVCEHFGVEATGEESSIRQYELVLHTDIDVAKVYQGEMGRLKSYENQKPPFDAKNPFLATVTTNRKLNQGTERHLMHLELDISDSKIRYESGDHVAVYPANDSALVNQLGEILGADLDVVMSLNNLDEESNKKHPFPCPTSYRTALTYYLDITNPPRTNVLYELAQYAADPAEQEQLRKMASSSGEGKELYLSWVVEARRHILAILQDYPSLRPPIDHLCELLPRLQARYYSIASSSKVHPNSVHICAVAVEYETKAGRLNKGVATSWLRAKEPAGENGGRALVPMFVRKSQFRLPFKATTPVIMVGPGTGVAPFIGFIQERAWLRQQGKEVGETLLYYGCRRAAEDYLYREELAGFQKDGTLSQLNVAFSREQAQKVYVQHLLRRDKEHLWRLIHEGGAHIYVCGDARNMARDVQNTFYDIVAELGAMEHAQAVDYVKKLMTKGRYSLDVWS |  |  |  | 3.35 ± 0.23
cytochrome b5 reductase: Recombinant soluble domain of rat hepatic cytochrome b5 reductase (protein, listed as Rattus norvegicus) MGAQLSTLSRVVLSPVWFVYSLFMKLFQRSSPAITLENPDIKYPLRLIDKEIISHDTRRFRFALPSPQHILGLPIGQHIYLSTRIDGNLVIRPYTPVSSDDDKGLVDLVVKVYFKDTHPKFPAGGKMSQYLENMNIGDTIEFRGPNGLLVYQGKGKFAIRADKKSNPVVRTVKSVGMIAGGTGITPMLQVIRAVLKDPNDHTVCYLLFANQSEKDILLRPELEELRNEHSSRFKLWYTVDKAPDAWDYSQGFVNEEMIRDHLPPPGEETLILMCGPPPMIQFACLPNLERVGHPKERCFTF |  |  | 0.31 ± 0.11 | 
